This note sets out measurements from paper PMC4328751 (EMBO Reports, 2014).

In assay [1] the target is T1, yHsp70 (yeast, UniProt P10591 1-642, 5-(and-6)-carboxyfluorescein coupled (in the analytical ultracentrifugation)). As to the kind of experiment: SPR.
The target of assay [2] is T1, yHsp70. As to the kind of experiment: AUC.
The target of a further assay is hHsp90 (human, UniProt P08238 1-724). As to the kind of experiment: SPR. (In general: SPR reads the build-up and loss of mass on a sensor chip optically.)
The next assay concerns the target yHsp90 (yeast, UniProt P02829 1-709). As to the kind of experiment: SPR.

T1 sequence (P10591 whole entry): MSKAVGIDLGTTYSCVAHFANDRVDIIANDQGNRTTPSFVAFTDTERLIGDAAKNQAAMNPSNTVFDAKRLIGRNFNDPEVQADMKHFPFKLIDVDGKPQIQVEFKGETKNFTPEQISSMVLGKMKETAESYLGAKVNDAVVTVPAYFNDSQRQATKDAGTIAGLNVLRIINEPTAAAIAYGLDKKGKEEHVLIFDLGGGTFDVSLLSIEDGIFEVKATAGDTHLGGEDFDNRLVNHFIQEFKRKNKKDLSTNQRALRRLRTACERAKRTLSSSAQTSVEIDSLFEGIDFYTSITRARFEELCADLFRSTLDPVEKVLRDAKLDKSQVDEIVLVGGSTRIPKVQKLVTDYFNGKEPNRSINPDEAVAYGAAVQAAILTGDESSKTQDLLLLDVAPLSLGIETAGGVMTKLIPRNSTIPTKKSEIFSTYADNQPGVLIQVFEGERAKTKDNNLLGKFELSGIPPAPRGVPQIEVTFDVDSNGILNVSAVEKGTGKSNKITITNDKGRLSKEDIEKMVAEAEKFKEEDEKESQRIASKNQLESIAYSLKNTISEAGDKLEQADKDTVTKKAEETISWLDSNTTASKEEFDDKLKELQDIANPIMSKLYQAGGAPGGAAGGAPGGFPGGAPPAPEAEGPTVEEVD
Sequence of hHsp90 (P08238 whole entry): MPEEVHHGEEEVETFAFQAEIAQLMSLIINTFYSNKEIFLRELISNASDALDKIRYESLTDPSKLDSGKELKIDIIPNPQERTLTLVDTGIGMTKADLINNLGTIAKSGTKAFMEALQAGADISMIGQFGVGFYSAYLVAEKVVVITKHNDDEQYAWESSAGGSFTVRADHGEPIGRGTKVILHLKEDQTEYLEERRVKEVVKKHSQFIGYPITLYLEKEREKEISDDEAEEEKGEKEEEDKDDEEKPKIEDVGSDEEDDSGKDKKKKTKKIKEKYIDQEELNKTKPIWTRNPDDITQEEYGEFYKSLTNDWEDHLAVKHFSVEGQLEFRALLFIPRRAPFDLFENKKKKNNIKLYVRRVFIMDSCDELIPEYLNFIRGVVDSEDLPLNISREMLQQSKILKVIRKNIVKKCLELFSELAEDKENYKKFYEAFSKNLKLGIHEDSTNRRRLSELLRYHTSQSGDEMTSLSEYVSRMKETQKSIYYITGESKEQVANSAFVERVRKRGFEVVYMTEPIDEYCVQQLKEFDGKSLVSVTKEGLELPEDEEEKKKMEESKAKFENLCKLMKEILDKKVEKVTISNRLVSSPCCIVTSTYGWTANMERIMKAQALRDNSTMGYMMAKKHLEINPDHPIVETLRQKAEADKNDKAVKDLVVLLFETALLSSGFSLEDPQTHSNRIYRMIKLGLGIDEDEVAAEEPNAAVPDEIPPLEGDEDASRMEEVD
Sequence of yHsp90 (P02829 whole entry): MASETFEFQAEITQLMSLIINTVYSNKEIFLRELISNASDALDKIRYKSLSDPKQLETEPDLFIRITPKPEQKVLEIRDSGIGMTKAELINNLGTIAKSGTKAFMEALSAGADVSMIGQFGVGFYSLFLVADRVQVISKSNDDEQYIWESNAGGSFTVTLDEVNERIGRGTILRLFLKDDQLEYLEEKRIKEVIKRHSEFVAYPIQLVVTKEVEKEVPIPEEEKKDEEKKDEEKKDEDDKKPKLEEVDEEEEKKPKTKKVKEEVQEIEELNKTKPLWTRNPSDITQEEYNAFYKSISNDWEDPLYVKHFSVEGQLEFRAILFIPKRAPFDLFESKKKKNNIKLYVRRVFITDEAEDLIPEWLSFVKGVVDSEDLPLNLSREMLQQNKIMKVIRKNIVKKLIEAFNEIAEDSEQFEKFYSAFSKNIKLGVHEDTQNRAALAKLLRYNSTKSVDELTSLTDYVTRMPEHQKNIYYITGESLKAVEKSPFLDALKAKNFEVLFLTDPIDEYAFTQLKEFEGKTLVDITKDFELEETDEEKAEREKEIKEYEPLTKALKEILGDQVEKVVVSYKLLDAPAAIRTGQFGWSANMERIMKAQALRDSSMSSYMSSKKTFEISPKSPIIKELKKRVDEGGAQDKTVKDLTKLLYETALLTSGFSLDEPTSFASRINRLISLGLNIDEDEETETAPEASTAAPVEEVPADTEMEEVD

B1: Hop S16E (natural protein)
chain: not shown
With B1, the binding result with yHsp70 [1] is “binds”.

B2: Hop Y354E (natural protein)
chain: not shown
For B2, the “fold increase in KD against the wild type” value in the assay with yHsp70 [1] was around 2 fold.

B3: Sti1 (natural protein)
chain: MSLTADEYKQQGNAAFTAKDYDKAIELFTKAIEVSETPNHVLYSNRSACYTSLKKFSDALNDANECVKINPSWSKGYNRLGAAHLGLGDLDEAESNYKKALELDASNKAAKEGLDQVHRTQQARQAQPDLGLTQLFADPNLIENLKKNPKTSEMMKDPQLVAKLIGYKQNPQAIGQDLFTDPRLMTIMATLMGVDLNMDDINQSNSMPKEPETSKSTEQKKDAEPQSDSTTSKENSSKAPQKEESKESEPMEVDEDDSKIEADKEKAEGNKFYKARQFDEAIEHYNKAWELHKDITYLNNRAAAEYEKGEYETAISTLNDAVEQGREMRADYKVISKSFARIGNAYHKLGDLKKTIEYYQKSLTEHRTADILTKLRNAEKELKKAEAEAYVNPEKAEEARLEGKEYFTKSDWPNAVKAYTEMIKRAPEDARGYSNRAAALAKLMSFPEAIADCNKAIEKDPNFVRAYIRKATAQIAVKEYASALETLDAARTKDAEVNNGSSAREIDQLYYKASQQRFQPGTSNETPEETYQRAMKDPEVAAIMQDPVMQSILQQAQQNPAALQEHMKNPEVFKKIQTLIAAGIIRTGR
For the molecule B3, the binding result with yHsp70 [2] and in the assay with hHsp90 was “binds” throughout. Moreover, the “fold stronger binding than to hHsp90” value with yHsp90 is around 2 fold.

B4: Sti1 S227E (natural protein)
chain: MSLTADEYKQQGNAAFTAKDYDKAIELFTKAIEVSETPNHVLYSNRSACYTSLKKFSDALNDANECVKINPSWSKGYNRLGAAHLGLGDLDEAESNYKKALELDASNKAAKEGLDQVHRTQQARQAQPDLGLTQLFADPNLIENLKKNPKTSEMMKDPQLVAKLIGYKQNPQAIGQDLFTDPRLMTIMATLMGVDLNMDDINQSNSMPKEPETSKSTEQKKDAEPQEDSTTSKENSSKAPQKEESKESEPMEVDEDDSKIEADKEKAEGNKFYKARQFDEAIEHYNKAWELHKDITYLNNRAAAEYEKGEYETAISTLNDAVEQGREMRADYKVISKSFARIGNAYHKLGDLKKTIEYYQKSLTEHRTADILTKLRNAEKELKKAEAEAYVNPEKAEEARLEGKEYFTKSDWPNAVKAYTEMIKRAPEDARGYSNRAAALAKLMSFPEAIADCNKAIEKDPNFVRAYIRKATAQIAVKEYASALETLDAARTKDAEVNNGSSAREIDQLYYKASQQRFQPGTSNETPEETYQRAMKDPEVAAIMQDPVMQSILQQAQQNPAALQEHMKNPEVFKKIQTLIAAGIIRTGR
For the molecule B4, the binding result with yHsp70 [1] is “binds”.

B5: Sti1 S258E (natural protein)
chain: MSLTADEYKQQGNAAFTAKDYDKAIELFTKAIEVSETPNHVLYSNRSACYTSLKKFSDALNDANECVKINPSWSKGYNRLGAAHLGLGDLDEAESNYKKALELDASNKAAKEGLDQVHRTQQARQAQPDLGLTQLFADPNLIENLKKNPKTSEMMKDPQLVAKLIGYKQNPQAIGQDLFTDPRLMTIMATLMGVDLNMDDINQSNSMPKEPETSKSTEQKKDAEPQSDSTTSKENSSKAPQKEESKESEPMEVDEDDEKIEADKEKAEGNKFYKARQFDEAIEHYNKAWELHKDITYLNNRAAAEYEKGEYETAISTLNDAVEQGREMRADYKVISKSFARIGNAYHKLGDLKKTIEYYQKSLTEHRTADILTKLRNAEKELKKAEAEAYVNPEKAEEARLEGKEYFTKSDWPNAVKAYTEMIKRAPEDARGYSNRAAALAKLMSFPEAIADCNKAIEKDPNFVRAYIRKATAQIAVKEYASALETLDAARTKDAEVNNGSSAREIDQLYYKASQQRFQPGTSNETPEETYQRAMKDPEVAAIMQDPVMQSILQQAQQNPAALQEHMKNPEVFKKIQTLIAAGIIRTGR
As for B5, in the assay with yHsp70 [1], the binding result was “binds”.

B6: Sti1 S410E (natural protein)
chain: MSLTADEYKQQGNAAFTAKDYDKAIELFTKAIEVSETPNHVLYSNRSACYTSLKKFSDALNDANECVKINPSWSKGYNRLGAAHLGLGDLDEAESNYKKALELDASNKAAKEGLDQVHRTQQARQAQPDLGLTQLFADPNLIENLKKNPKTSEMMKDPQLVAKLIGYKQNPQAIGQDLFTDPRLMTIMATLMGVDLNMDDINQSNSMPKEPETSKSTEQKKDAEPQSDSTTSKENSSKAPQKEESKESEPMEVDEDDSKIEADKEKAEGNKFYKARQFDEAIEHYNKAWELHKDITYLNNRAAAEYEKGEYETAISTLNDAVEQGREMRADYKVISKSFARIGNAYHKLGDLKKTIEYYQKSLTEHRTADILTKLRNAEKELKKAEAEAYVNPEKAEEARLEGKEYFTKEDWPNAVKAYTEMIKRAPEDARGYSNRAAALAKLMSFPEAIADCNKAIEKDPNFVRAYIRKATAQIAVKEYASALETLDAARTKDAEVNNGSSAREIDQLYYKASQQRFQPGTSNETPEETYQRAMKDPEVAAIMQDPVMQSILQQAQQNPAALQEHMKNPEVFKKIQTLIAAGIIRTGR
For the molecule B6, the “fold increase in KD against the wild type” value with yHsp70 [1] was around 2 fold.

B7: Sti1 S95E (natural protein)
chain: MSLTADEYKQQGNAAFTAKDYDKAIELFTKAIEVSETPNHVLYSNRSACYTSLKKFSDALNDANECVKINPSWSKGYNRLGAAHLGLGDLDEAEENYKKALELDASNKAAKEGLDQVHRTQQARQAQPDLGLTQLFADPNLIENLKKNPKTSEMMKDPQLVAKLIGYKQNPQAIGQDLFTDPRLMTIMATLMGVDLNMDDINQSNSMPKEPETSKSTEQKKDAEPQSDSTTSKENSSKAPQKEESKESEPMEVDEDDSKIEADKEKAEGNKFYKARQFDEAIEHYNKAWELHKDITYLNNRAAAEYEKGEYETAISTLNDAVEQGREMRADYKVISKSFARIGNAYHKLGDLKKTIEYYQKSLTEHRTADILTKLRNAEKELKKAEAEAYVNPEKAEEARLEGKEYFTKSDWPNAVKAYTEMIKRAPEDARGYSNRAAALAKLMSFPEAIADCNKAIEKDPNFVRAYIRKATAQIAVKEYASALETLDAARTKDAEVNNGSSAREIDQLYYKASQQRFQPGTSNETPEETYQRAMKDPEVAAIMQDPVMQSILQQAQQNPAALQEHMKNPEVFKKIQTLIAAGIIRTGR
Turning to B7, the binding result with yHsp70 [2] was “binds”.

B8: Sti1 T37E (natural protein)
chain: MSLTADEYKQQGNAAFTAKDYDKAIELFTKAIEVSEEPNHVLYSNRSACYTSLKKFSDALNDANECVKINPSWSKGYNRLGAAHLGLGDLDEAESNYKKALELDASNKAAKEGLDQVHRTQQARQAQPDLGLTQLFADPNLIENLKKNPKTSEMMKDPQLVAKLIGYKQNPQAIGQDLFTDPRLMTIMATLMGVDLNMDDINQSNSMPKEPETSKSTEQKKDAEPQSDSTTSKENSSKAPQKEESKESEPMEVDEDDSKIEADKEKAEGNKFYKARQFDEAIEHYNKAWELHKDITYLNNRAAAEYEKGEYETAISTLNDAVEQGREMRADYKVISKSFARIGNAYHKLGDLKKTIEYYQKSLTEHRTADILTKLRNAEKELKKAEAEAYVNPEKAEEARLEGKEYFTKSDWPNAVKAYTEMIKRAPEDARGYSNRAAALAKLMSFPEAIADCNKAIEKDPNFVRAYIRKATAQIAVKEYASALETLDAARTKDAEVNNGSSAREIDQLYYKASQQRFQPGTSNETPEETYQRAMKDPEVAAIMQDPVMQSILQQAQQNPAALQEHMKNPEVFKKIQTLIAAGIIRTGR
For B8, in the assay with yHsp70 [1], the binding result is “binds”.
